Source: article PMC3085272

Molecular target: Rac1-GMPPNP (UniProt P63000)
Experiment: equilibrium dialysis

Kd: 1000 to 2000 nM
Substance: ΔWRC (VCA-deleted WRC, containing WAVE1(1-186)) (from UniProt Q7L576;Q9Y2A7;Q92558;Q9NYB9;Q8WUW1) (complex)
